# Laboratory results: patent WO2007014992A2 (dated 2007)
# B1: Anti-LDL-R 5E5 monoclonal antibody produced by the hybridoma H5E5 (CNCM I-3488) (antibody, V domains shown)
# VH: QVQLQQSGPELVRPGVSVKISCKGSGYTFTDYAMHWVKQSHAQSLEWIGFISTYSGNTNYNQKFKGRATMTVDKSSSTAYMELARLTSEDSAIYYCARPNYYGSSPGGFAYWGQGTLVTVSA
# VL: ENVLTQSPAIMSASLGEKVTMSCRARSSVNYMYWYQQKSDASPKLWIYYTSNLAPGVPARFSGSGSGNSYSLTISSMEGEDAATYYCQQFTSSPSFGGGTKLEIK
# notes: also called anti-LDL-R 5E5 antibodies; murine antibody 5E5
# Target: T1, human LDL (Low Density Lipoprotein) receptor (human, UniProt P01130 22-860)
# T1 construct: whole, on cells; Endogenous receptor on human A549 and MDA-MB-231 cells (flow cytometry); also called LDL-R; human LDL-R
# T1 sequence (P01130 22-860): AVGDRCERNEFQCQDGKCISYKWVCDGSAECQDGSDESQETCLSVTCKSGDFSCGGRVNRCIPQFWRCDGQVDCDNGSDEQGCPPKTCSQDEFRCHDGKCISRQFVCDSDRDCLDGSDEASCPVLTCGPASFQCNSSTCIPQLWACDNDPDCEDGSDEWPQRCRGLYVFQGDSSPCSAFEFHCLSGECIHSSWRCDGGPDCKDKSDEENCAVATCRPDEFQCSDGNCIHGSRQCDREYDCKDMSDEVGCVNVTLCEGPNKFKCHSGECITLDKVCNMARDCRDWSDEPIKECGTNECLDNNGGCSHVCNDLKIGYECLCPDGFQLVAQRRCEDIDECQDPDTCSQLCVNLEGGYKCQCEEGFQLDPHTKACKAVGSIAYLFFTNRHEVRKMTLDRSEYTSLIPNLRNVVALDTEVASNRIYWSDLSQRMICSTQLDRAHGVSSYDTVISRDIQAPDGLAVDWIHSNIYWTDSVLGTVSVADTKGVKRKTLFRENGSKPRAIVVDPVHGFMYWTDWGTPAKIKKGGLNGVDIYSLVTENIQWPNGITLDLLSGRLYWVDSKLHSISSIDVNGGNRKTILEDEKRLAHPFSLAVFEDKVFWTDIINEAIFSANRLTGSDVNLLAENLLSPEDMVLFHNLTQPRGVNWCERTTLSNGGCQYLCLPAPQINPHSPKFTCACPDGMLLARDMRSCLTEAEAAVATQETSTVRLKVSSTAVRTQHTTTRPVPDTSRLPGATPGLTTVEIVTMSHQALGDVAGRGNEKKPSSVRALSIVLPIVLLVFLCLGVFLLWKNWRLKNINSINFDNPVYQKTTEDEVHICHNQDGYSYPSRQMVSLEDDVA
# Test: Western blot of total protein extracts of MDA-MB-231 cells
binder,measurement,value
B1,binding result,binds
